Reference: patent US10105414B2, “Peptides derived from RS1 which down-regulate glucose absorption after a glucose rich meal and increase insulin sensitivity” (Julius-Maximilians-Universität Würzburg, priority 2014, dated 2018)

Biological target: T1, ODC (Homo sapiens, UniProt P11926)
T1 sequence (P11926 1-461): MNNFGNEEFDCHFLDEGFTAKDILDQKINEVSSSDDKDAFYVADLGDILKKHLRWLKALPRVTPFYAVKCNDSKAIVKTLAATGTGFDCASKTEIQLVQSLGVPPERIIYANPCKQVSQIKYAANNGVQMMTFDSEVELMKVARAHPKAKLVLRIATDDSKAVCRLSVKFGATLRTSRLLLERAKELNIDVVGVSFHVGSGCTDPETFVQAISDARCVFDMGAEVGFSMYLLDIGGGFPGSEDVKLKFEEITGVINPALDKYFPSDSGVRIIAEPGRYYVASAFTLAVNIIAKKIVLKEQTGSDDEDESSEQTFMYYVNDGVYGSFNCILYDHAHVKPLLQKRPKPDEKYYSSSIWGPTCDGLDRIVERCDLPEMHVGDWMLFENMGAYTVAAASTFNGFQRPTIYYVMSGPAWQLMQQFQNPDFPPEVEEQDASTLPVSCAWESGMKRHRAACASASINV
Assay: Activity of purified ODC (released CO2)
Assay type: biochemical
Settings: 100 μM tripeptide, 80 ng purified ODC, 1 h, 37° C.

- inhibition of ODC activity: not
Substance: PEQ: reverse tripeptide PEQ as control [reference compound]
